According to US20090291081A1 (AbbVie / Abbott, published 2009):
Positions count from the first letter of the chain named. Like-named read-outs stand apart in the source and are kept apart here. Blank lines part the entries; values can stand above or below the binder they belong to.

Columns and labels:
[1] = target: T1, human IL-1β (human, UniProt P01584 117-269); test: cell-based or functional assay
[2] = target: T2, human IL-1α (human, UniProt P01583 113-271); test: cell-based or functional assay
T2 sequence (looked up): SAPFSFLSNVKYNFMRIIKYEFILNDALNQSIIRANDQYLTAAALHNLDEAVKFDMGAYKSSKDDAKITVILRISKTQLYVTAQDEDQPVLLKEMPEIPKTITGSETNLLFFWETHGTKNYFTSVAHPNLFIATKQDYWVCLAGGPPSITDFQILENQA

[3] = target: T3, human IL-1β (human, UniProt P01584 117-269); test: cell-based or functional assay; remark: listed apart in the source
[4] = target: T3, human IL-1β; test: BIAcore (SPR)
[5] = target: T2, human IL-1α; test: method not given
[6] = target: T2, human IL-1α; test: cell-based or functional assay; remark: listed apart in the source
[7] = target: T4, human IL-1α (human, UniProt P01583 113-271); test: cell-based or functional assay; remark: listed apart in the source
T4 sequence (looked up): T2 sequence (looked up)

[8] = target: T4, human IL-1α; test: Table 62 IC50; RBA presumed
[9] = target: T4, human IL-1α; test: cell-based or functional assay; remark: listed apart in the source
[10] = target: T4, human IL-1α; test: BIAcore (SPR)
[11] = target: T1, human IL-1β; test: cell-based or functional assay; remark: listed apart in the source
[12] = target: T4, human IL-1α; test: Table 62 KD; BIAcore presumed

B2: ABT2-46 (other)
VL: DIQMTQSPSSLSASVGDRVTITCRASQSIIEWLSWYQQKPGKAPKLLIYRTSVLQSGVPSRFSGSGSGTDFTLTISSLQPEDFATYYCQQNEFWPFTFGQGTKVEIKR
notes: VK dAb
MRC5 ND50 [3]: 386 nM
Kd [4]: 2800 nM

B5: ABT2-42 (other)
VL: B2 VL with S28Y, I30E, E31K, S34T, K45T, T51G, V53L, N91T, F93Y
notes: VK dAb
MRC5 ND50 [3]: 770 nM
Kd [4]: 54000 nM

B6: ABT1-95-4 (other)
VL: DIQMTQSPSSLSASVGDRVTITCRASQPIVRNLRWYQQKPGKAPKLLIYSSSYLQSGVPSRFSGSGSGTDFTLTISSLQPEDFATYHCQQGYRWPVTFGQGTKVEIKR
notes: dAb, Vκ, to IL-1α
Kd [5]: 0.9 nM
MRC5 ND50 [6]: 900 pM

B7: ABT1-95-A5 (other)
VL: B6 VL with Q27R, P28T, I29P, S51R, Y53F, Q55E, S56P, Q89L, V96P
MRC5 ND50 [6]: 16 pM

B8: ABT1-95-A3 (other)
VL: B6 VL with Q27K, I29G, L33M, S51V, Q55E, S56P, Q89L, V96P
MRC5 ND50 [6]: 11 pM

B10: ABT1-95-A6 (other)
VL: B6 VL with Q27K, I29G, L33M, S50A, S51K, Q55E, S56P, Q89K, T97Q
MRC5 ND50 [6]: 24 pM

B11: ABT1-95 (other)
VL: B6 VL with V30H, R31G, S50N, S51I, Y53N, H87Y
notes: VK dAb
ND50 [7]: 800 nM
IC50 [8]: 500 nM
MRC5 ND50 [9]: 800 nM
Kd [10]: 45 nM

B12: ABT1-95-181 (other)
VL: B6 VL with Q27K, L33M, S51V, Q55E, S56P, Q89L, V96P
MRC5 ND50 [6]: 14 pM

B13: ABT1-122 (other)
VL: DIQMTQSPSSLSASVGDRVTITCRASQPIWTELNWYQQKPGKAPKLLIYGSSSLQSGVPSRFSGSGSGTDFTLTISSLQPEDFATYYCQQFAYFPATFGQGTKVEIKR
notes: VK dAb
ND50 [7]: 100 nM
IC50 [8]: 80 nM
MRC5 ND50 [9]: 50 nM
Kd [10]: 42 nM

B14: ABT1-141 (other)
VL: B6 VL with P28W, V30Q, R31K, N32Q, R34A, H87Y, G91H, Y92L, W94V, V96F
notes: VK dAb
ND50 [7]: 142 nM
MRC5 ND50 [9]: 50 nM
Kd [10]: 300 nM

B15: ABT1-98 (other)
VH: EVQLLESGGGLVQPGGSLRLSCAASGFTFDGYIMSWVRQAPGKGLEWVSTISPLGSVTYYADSVKGRFTISRDNSKNTLYLQMNSLRAEDTAVYYCAKKGPWFDYWGQGTLVTVSS
notes: VH dAb
ND50 [7]: < 100 nM
MRC5 ND50 [9]: 30 nM
Kd [10]: 13 nM

B17: ABT1-86 (other)
VH: EVQLLESGGGLVQPGGSLRLSCAASGFTFDRYIMAWVRQAPGKGLEWVSSITPSGAATYYADSVKGRFTISRDNSKNTLYLQMNSLRAEDTAVYYCAEEPADRYSTWTFDYWGQGTLVTVSS
notes: VH dAb
ND50 [7]: 900 nM
IC50 [8]: 1000 nM
MRC5 ND50 [9]: 900 nM
Kd [10]: 110 nM

B18: ABT1-96 (other)
VH: EVQLLESGGGLVQPGGSLRLSCAASGFTFNQYNMFWVRQAPGKGLEWVSVISGSGRFTYYADSVKGRFTISRDNSKNTLYLQMNSLRAEDTAVYYCAKGWWRRDPPFDYWGQGTLVTVSS
notes: VH dAb
ND50 [7]: 17 nM
MRC5 ND50 [9]: 11 nM
Kd [10]: 1.1 nM

B21: ABT1-6-23 (other)
VH: EVQLLESGGGLVQPGGSLRLSCAASGFTFVRYDMAWVRQAPGKGLEWVSSIYKSGALTSYADSVKGRFTISRDNSKNTLYLQMNSLRAEDTAVYYCAKGWASFDYWGQGTLVTVSS
notes: VH dAb
ND50 [7]: 30 nM
IC50 [8]: 30 nM
Kd [12]: 6 nM
Kd [10]: 61 nM

B25: ABT2-13 (other)
VH: EVQLLESGGGLVQPGGSLRLSCAASGFTFRDYVMYWARQAPGKGLEWVSRIDPMGSSTYYADSVKGRFTISRDNSKNTLYLQMNSLRAEDTAVYYCAKPEGNFDYWGQGTLVTVSS
notes: VH dAb
MRC5 ND50 [3]: ~1000 nM
Kd [4]: 930 nM

The remaining lines, values ahead:

Fab IL-1β ND10 [1]: 400 nM
Fab IL-1α ND10 [2]: 6 nM
B1: Fab ABT1-96/ABT2-46 (Fab, V domains shown)
VH: EVQLLESGGGLVQPGGSLRLSCAASGFTFNQYNMFWVRQAPGKGLEWVSVISGSGRFTYADSVKGRFTISRDNSKNTLYLQMNSLRAEDTAVYYCAKGWWRRDPPFDYWGQGTLVTVSS
VL: B2 VL

Fab IL-1β ND10 [1]: 1500 nM
Fab IL-1α ND10 [2]: 100 nM
B3: Fab ABT1-98/ABT2-76 (Fab, V domains shown)
VH: B15 VH
VL: B2 VL with I30D, E31R, S34A, T51G, V53I, N91V, E92A, F96P

MRC5 ND50 [3]: 456 nM
Kd [4]: 1300 nM
B4: ABT2-76 (other)
VL: B2 VL with I30D, E31R, S34A, T51G, V53I, N91V, E92A, F96P
notes: VK dAb

Fab IL-1β ND10 [1]: 400 nM
Fab IL-1α ND10 [2]: 200 nM
B9: Fab ABT1-95/ABT2-13 (Fab, V domains shown)
VH: B25 VH
VL: B6 VL with V30H, R31G, S50N, S51I, Y53N, H87Y

MRC5 ND50 [3]: 200 nM
Kd [4]: 110 nM
B16: ABT2-108 (other)
VH: EVQLLESGGGLVQPGGSLRLSCAASGFTFAEYTMMWVRQAPGKGLEWVSRIGQDGKNTYYADSVKGRFTISRDNSKNTLYLQMNSLRAEDTAVYYCAKYTGRVGVHHLFDYWGQGTLVTSS
notes: VH dAb

MRC-5 IL-1β neutralization potency [11]: ~0.35 nM
B19: ABT2-108-605/ABT1-122 hu IgG1/K wt (bispecific antibody, V domains shown)
VH: EVQLLESGGGLVQPGGSLRLSCAASGFTFAEYTMMWVRQAPGKGLEWVSRIGQDGKNTYYREDVKGRFTISRDNSKNTLYLQMNSLRAEDTAVYYCAKYTGRVGVHHLFDYWGQGTLVTVSS
VL: DIQMTQSPSSLSASVGDRVTITCRASQPIWTELNWYQQKPGKAPKLLIYGSSSLQSGVPRFSGSGSGTDFTLTISSLQPEDFATYYCQQFAYFPATFGQGTKVEIKR

Fab IL-1β ND10 [1]: 1500 nM
Fab IL-1α ND10 [2]: 40 nM
B20: Fab ABT1-122/ABT2-65 (Fab, V domains shown)
VH: EVQLLESGGGLVQPGGSLRLSCAASGFTFEDYQMGWVRQAPGKGLEWVSSISAMGNRTYYADSVKGRFTISRDDSKNTLYLQMNSLRAEDTAVYYCAKNLVRTQSKMWMFDYWGQGTLVTVSS
VL: B19 VL

Fab IL-1β ND10 [1]: 300 nM
Fab IL-1α ND10 [2]: 80 nM
B22: Fab ABT1-141/ABT2-65 (Fab, V domains shown)
VH: B20 VH
VL: DIQMTQSPSSLSASVGDRVTITCRASQWIQKQLAWYQQKPGKAPKLLIYSSSYLQSGVPRFSGSGSGTDFTLTISSLQPEDFATYYCQQHLRVPFTFGQGTKVEIKR

MRC5 ND50 [3]: 266 nM
Kd [4]: 28 nM
B23: ABT2-65 (other)
VH: B20 VH
notes: VH dAb

Fab IL-1β ND10 [1]: > 500 nM
Fab IL-1α ND10 [2]: 40 nM
B24: Fab ABT1-6-23/ABT2-13 (Fab, V domains shown)
V domain 1: EVQLLESGGGLVQPGGSLRLSCAASGFTFVRYDMAWVRQAPGKGLEWVSSIYKSGALTSYDSVKGRFTISRDNSKNTLYLQMNSLRAEDTAVYYCAKGWASFDYWGQGTLVTVSS
V domain 2: B25 VH
